Reference: patent US20250333760A1, “TEMPERATURE-SENSITIVE NEGATIVE-STRAND RNA VIRUS OR VIRUS VECTOR AND RNA GENOME THEREOF” (REPLI-TECH CO., LTD., priority 2021, published 2025)

System: HeLa cells
Assay: Relative fluorescence intensity of EmGFP having degron (DD tag and mutants) added, expressed from SeV in HeLa cells
Format: cell-based
Settings: for Relative fluorescence intensity of EmGFP having degron added thereto, Shield1: 1 μM of Shield-1; for Relative fluorescence intensity of EmGFP having degron added thereto, Shield1 / Relative fluorescence intensity of EmGFP having degron added thereto, dTAG-13 / Relative fluorescence intensity of EmGFP having degron added thereto, (—): 3 days after infection, MOI=10; for Relative fluorescence intensity of EmGFP having degron added thereto, dTAG-13: 5 μM of dTAG-13; for Relative fluorescence intensity of EmGFP having degron added thereto, (—): no Shield-1 or dTAG-13; for Shield1/(—) / Shield1/dTAG-13: ratio of relative fluorescence intensities
Text: The addition of a proteolytic tag (degron) to a P protein can facilitate the elimination of a SeV. A DD tag is a type of proteolytic tag (see, for example, US 2009/0215169 A). The DD tag (see SEQ ID NO: 18) is a protein of 107 amino acids in length, obtained by introducing F36V and L106P into FKBP12. Adding a low molecular weight compound, Shield-1 provides stabilization, and adding dTAG-13 also promotes degradation of the protein fused with the tag. In the present Example, a DD mutant (DDm; see SEQ ID NO: 19) having 11 mutations (4I, 18K, 36L, 501, 57K, 59F, 63A, 68L, 90V, 981, and 105R) in a DD tag was constructed. In the present Example, in order to investigate the proteolysis-promoting effect of the DDm, the DD tag and its mutants (including the DDm) were added to EmGFP at its C-terminal and loaded at the + position of the SeV vector (having the above mutation described in WO 2003/025570). HeLa cells were infected with the resulting SeV (MOI=10). On the day after infection, 1 μM of Shield-1 or 5 μM of dTAG-13 was added thereto, and the fluorescence from the cell was observed 3 days after infection. When a DDrs tag having the amino acid sequence set forth in SEQ ID NO: 28 was constructed and added to EmGFP at its C-terminal, the effect of stabilizing EmGFP by Sheild-1 was not obtained and the fluorescence intensity was only about 20% of that of a DD-tagged EmGFP (FIG. 8).

B1: DDm (protein)
chain: GVQIETISPGDGRTFPKKGQTCVVHYTGMLEDGKKLDSSRDRNKPFKFMIGKQEVIKGFEEGAAQMSLGQRAKLTISPDYAYGATGHPGVIPPHATLIFDVELLRPE
Relative fluorescence intensity of EmGFP having degron added thereto, Shield1 (37° C.): 140.4% | Relative fluorescence intensity of EmGFP having degron added thereto, dTAG-13 (37° C.): 0.478% | Relative fluorescence intensity of EmGFP having degron added thereto, (—) (37° C.): 15.0% | Shield1/(—) (37° C.): 9.39 | Shield1/dTAG-13 (37° C.): 293.9 | Relative fluorescence intensity of EmGFP having degron added thereto, Shield1 (38.5° C.): 153% | Relative fluorescence intensity of EmGFP having degron added thereto, dTAG-13 (38.5° C.): 0.05% | Relative fluorescence intensity of EmGFP having degron added thereto, (—) (38.5° C.): 2.5% | Shield1/(—) (38.5° C.): 61.47 | Shield1/dTAG-13 (38.5° C.): 3181.7 | ratio of Shield1/dTAG-13 (in words) (Tables 6 and 7, 37° C. and 38.5° C.): significantly improved
